T1: B7H4 (human) (human, UniProt Q7Z7D3 25-258, limits assumed)
T1 construct: also called PD-L1 family members
T1 sequence (looked up): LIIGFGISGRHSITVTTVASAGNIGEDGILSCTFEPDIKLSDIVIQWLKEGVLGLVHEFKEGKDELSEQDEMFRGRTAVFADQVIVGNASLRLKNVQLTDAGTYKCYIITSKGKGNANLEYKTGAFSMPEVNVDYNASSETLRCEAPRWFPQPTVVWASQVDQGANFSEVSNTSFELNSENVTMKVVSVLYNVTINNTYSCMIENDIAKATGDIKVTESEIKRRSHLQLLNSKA

T2: PD-L2 (human) (human, UniProt Q9BQ51 20-219, limits assumed)
T2 construct: also called PD-L1 family members
T2 sequence (looked up): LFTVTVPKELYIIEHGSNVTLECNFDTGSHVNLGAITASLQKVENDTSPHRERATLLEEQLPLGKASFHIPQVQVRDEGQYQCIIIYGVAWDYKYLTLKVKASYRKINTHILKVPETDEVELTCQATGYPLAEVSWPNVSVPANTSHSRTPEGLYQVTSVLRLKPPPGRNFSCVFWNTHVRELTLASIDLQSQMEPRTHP

T3: B7H3 (human) (human, UniProt Q5ZPR3 29-461, limits assumed)
T3 construct: also called PD-L1 family members
T3 sequence (looked up): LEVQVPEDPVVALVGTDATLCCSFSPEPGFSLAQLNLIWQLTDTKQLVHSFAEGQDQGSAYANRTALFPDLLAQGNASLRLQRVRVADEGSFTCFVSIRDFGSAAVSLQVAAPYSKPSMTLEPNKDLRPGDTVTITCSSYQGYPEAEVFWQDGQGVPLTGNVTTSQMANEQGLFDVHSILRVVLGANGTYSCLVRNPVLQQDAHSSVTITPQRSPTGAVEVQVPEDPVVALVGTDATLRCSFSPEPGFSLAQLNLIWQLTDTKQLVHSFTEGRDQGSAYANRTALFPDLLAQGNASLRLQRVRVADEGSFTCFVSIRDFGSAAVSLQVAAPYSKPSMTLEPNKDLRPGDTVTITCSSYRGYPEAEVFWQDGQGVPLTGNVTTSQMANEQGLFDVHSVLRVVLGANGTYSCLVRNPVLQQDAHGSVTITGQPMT

B1: PD-L1 Nb-Fc protein (nanobody before humanization fused to IgG1 Fc) (Fc fusion)
chain: QVQLQESGGGSVQAGGSLRLSCQASAYTISRNSMGWFRQAPGKQREGVAAIESDGSTSYSDSVKGRFTISLGNAKNTLYLEMNSLKPEDTAMYYCAAPKVGLGPRTALGHLAFMTLPALNYWGQGTQVTVSS
notes: also called PD-L1 nanobodies; nanobodies before humanization; not shown: IgG1 Fc encoded by the pFUSE-IgG1 vector (Invivogen)
B2: humanized PD-L1 nanobody with Fc tag (humanized Nb-Fc) (Fc fusion)
chain: QVQLQESGGGLVQPGGSLRLSCAASAYTISRNSMGWFRQAPGKGLEGVAAIESDGSTSYSDSVKGRFTISLDNSKNTLYLEMNSLRAEDTAVYYCAAPKVGLGPRTALGHLAFMTLPALNYWGQGTLVTVSS
notes: also called humanized PD-L1 nanobodies; humanized nanobodies; not shown: IgG1 Fc encoded by the pFUSE-IgG1 vector (Invivogen)

What was measured:
[1] = molecular target: T1, B7H4 (human); test: ELISA, antigen coated at 0.5 µg per well, biotinylated nanobody, streptavidin-HRP
Description: (§1) (2) The antigen proteins PD-L1 (human), PD-L1 (rat), PD-L1 (monkey), PD-L2 (human), B7H4 (human), B7H3 (human) were coated: 0.5 μg per well (5 μg/mL, 100 μL), IgG1 was coated as a control, left overnight at 4° C.;
(§2) (4) Each biotinylated nanobodies were diluted to 10 μg/mL, and 100 μL of each was incubated in each well and allowed to react at RT for 1 hour.
(§3) (5) The unbound nanobodies were washed with PBST, 100 μL of streptavidin-HRP (1:1000 dilution) was added, and the resultant was let stand for 1 hour at room temperature.

[2] = molecular target: T2, PD-L2 (human); test: as above
Description: as §1, §2, §3

[3] = molecular target: T3, B7H3 (human); test: as above
Description: as §1, §2, §3

[4] = molecular target: T4, PD-L1 (human) antigen protein (human, UniProt Q9NZQ7 19-238, limits assumed); test: SPR, BiaCore T200, antigen immobilized on CM-5 chip, nanobody in five concentrations
T4 construct: also called human PD-L1; immobile phase antigens
Description: BiaCore T200 was used for detection. (1) Immobilization: The immobile phase antigens were immobilized on the surface of a CM-5 sensor chip using a carboxy-amino reaction;
(2) Binding: The nanobodies were diluted with HBS buffer to an appropriate concentration (five concentration gradients) to observe the antigen-nanobody binding process;
(4) Analysis of the experimental results.

T4 sequence (Q9NZQ7 19-238 limits assumed): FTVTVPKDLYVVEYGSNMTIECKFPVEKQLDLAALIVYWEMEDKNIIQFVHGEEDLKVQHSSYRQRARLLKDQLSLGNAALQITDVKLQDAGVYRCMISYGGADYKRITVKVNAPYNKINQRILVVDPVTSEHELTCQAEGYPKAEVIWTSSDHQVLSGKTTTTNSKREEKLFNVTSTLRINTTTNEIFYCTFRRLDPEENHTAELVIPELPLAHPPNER

binding result [1]	binding result [2]	binding result [3]	Kd [4] [nM]	Binder
no binding (tested: 10 µg/mL)	no binding (tested: 10 µg/mL)	no binding (tested: 10 µg/mL)	2.34	B1
no binding (tested: 10 µg/mL)	no binding (tested: 10 µg/mL)	no binding (tested: 10 µg/mL)	2.26	B2

Source: patent publication US20190023793A1 (Innovent, published 2019)
